{"source": "patent US20230295331A1", "about": "(PROMAB BIOTECHNOLOGIES, published 2023)", "binders": {"B1": {"name": "mouse monoclonal anti-human CS1 antibody, clone 7A8D5 (antibody, V domains shown)", "VH": "VQLQQSGPEVVRPGVSVKISCKGSGYTFTDYAIHWVKQSHAKSLEWIGVINTYNGNTNYNQKFKGKATMTVDKSSSTAYMELARLTSEDSAIYYCTRTGYYYGPSHYFDYWGQGTTLTVSS", "VL": "DIVLTQSPASLTVSLGQRATMSCRASKSVSTSGYSYVHWYQQKPGQPPKLLIYLASNLESGVPARFSASGSGTDFTLNIHPVEEEDAATYYCQHSRELPWTFGGGTKLEIKR", "notes": "Mouse monoclonal antibody from a hybridoma, purified on a Protein G column; also called anti-CS1 antibody clone 7A8D5; CS1 clone 7A8D5"}}, "key": {"[1]": {"target": "T1, CS1 protein (SLAM family member 7, CD319) on cells (human, UniProt Q9NQ25 23-335)", "T1 construct": "The cells are CHO-CS1 (bought from BPS Bioscience), Hela-CS1 (transduced with CS1 cDNA lentivirus) and the myeloma lines, which carry CS1 of their own; also called CHO-CS1 cells; Hela-CS1 cells", "T1 sequence": "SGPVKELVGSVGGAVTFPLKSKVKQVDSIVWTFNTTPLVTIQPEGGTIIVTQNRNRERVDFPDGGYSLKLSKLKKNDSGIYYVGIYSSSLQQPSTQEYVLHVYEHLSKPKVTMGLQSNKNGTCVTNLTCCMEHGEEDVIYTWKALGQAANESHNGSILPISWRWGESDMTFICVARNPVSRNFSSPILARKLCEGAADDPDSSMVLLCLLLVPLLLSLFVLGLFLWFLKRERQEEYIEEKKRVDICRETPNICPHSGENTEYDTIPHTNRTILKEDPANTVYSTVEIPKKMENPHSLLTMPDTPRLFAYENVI", "assay": "binding titration by flow cytometry on CHO-CS1 cells"}, "[2]": {"target": "T1, CS1 protein (SLAM family member 7, …)", "assay": "flow cytometry binding titration on CHO-CS1 cells"}}, "note": "Values joined by “and” are separate entries in the source; they are usually repeats but may differ in a detail not shown here. Equal entries are not always repeated."}
{"binder": "B1", "values": [{"measurement": "Kd", "setting": "[1]", "value": "5.3 nM and 0.8 µg/mL"}, {"measurement": "EC50 (read off the curve)", "setting": "[2]", "value": "~0.7", "unit": "µg/mL"}]}
